Earlier results as cited in PMC8699243.
Read-outs that look alike come from different tables or passages of the source.

Assays:
S100A10 (Homo sapiens) = S100A10 (Homo sapiens) (UniProt P60903)
S100A4 (Homo sapiens) = S100A4 (Homo sapiens) (UniProt P26447)
t-PA (Homo sapiens) [1] = target: t-PA (Homo sapiens) (UniProt P00750)
[2] = target: plasminogen (Homo sapiens) (UniProt P00747)
[3] = target: plasminogen (Homo sapiens) (UniProt P00747); remark: listed apart in the source
t-PA (Homo sapiens) [4] = target: t-PA (Homo sapiens) (UniProt P00750); remark: listed apart in the source

Sequence of UniProt P00747 (P00747 20-810): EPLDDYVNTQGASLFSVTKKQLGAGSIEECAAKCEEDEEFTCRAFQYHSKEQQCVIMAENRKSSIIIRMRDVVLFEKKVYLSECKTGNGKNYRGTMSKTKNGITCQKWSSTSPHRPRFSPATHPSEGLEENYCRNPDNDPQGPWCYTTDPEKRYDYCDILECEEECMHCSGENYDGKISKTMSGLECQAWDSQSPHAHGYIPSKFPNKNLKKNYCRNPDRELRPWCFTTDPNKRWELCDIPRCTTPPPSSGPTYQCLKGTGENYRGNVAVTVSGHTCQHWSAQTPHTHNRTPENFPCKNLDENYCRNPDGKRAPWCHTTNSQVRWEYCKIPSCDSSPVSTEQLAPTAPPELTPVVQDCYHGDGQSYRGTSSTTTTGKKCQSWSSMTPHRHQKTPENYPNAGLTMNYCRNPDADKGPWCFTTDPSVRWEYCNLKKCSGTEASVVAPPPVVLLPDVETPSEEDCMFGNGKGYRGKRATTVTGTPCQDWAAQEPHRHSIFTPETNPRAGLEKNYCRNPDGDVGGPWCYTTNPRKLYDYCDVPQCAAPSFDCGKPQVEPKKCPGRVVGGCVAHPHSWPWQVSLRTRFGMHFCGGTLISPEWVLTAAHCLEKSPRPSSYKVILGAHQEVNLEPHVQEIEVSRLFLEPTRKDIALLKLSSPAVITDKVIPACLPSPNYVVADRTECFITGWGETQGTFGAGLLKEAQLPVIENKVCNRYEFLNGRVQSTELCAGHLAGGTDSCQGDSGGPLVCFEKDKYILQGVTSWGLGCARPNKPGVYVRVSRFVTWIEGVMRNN
Sequence of UniProt P00750 (P00750 36-562): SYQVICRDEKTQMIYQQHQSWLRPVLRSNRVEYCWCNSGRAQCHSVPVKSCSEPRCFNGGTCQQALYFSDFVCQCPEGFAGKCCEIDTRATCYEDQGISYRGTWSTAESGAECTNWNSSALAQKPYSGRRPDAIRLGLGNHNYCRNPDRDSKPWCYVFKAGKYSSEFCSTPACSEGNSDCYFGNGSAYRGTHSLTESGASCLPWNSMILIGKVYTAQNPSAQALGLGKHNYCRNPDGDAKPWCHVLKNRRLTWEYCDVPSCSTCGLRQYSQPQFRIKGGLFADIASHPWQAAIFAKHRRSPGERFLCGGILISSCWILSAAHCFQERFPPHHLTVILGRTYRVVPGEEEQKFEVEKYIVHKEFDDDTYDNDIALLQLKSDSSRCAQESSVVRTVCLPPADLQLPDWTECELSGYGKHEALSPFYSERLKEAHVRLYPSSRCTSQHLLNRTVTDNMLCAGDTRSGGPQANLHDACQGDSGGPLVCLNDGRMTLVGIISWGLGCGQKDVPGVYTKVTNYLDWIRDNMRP
Sequence of UniProt P26447 (P26447 2-101): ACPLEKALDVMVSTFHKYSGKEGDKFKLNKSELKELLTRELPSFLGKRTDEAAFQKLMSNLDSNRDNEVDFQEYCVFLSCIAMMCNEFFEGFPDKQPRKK

In the case of Annexin A2 (from UniProt P07355), the Kd (S100A10 (Homo sapiens)) is listed as 13 nM and the Kd (S100A4 (Homo sapiens)) is listed as 5000 nM.
For “AIIt (Annexin A2/S100A10 heterotetramer) (from UniProt P07355)”, the Kd (t-PA (Homo sapiens) [1]) is listed as 680 nM and the Kd [2] is listed as 110 nM.
For S100A10 (from UniProt P60903), the Kd [3] is given as 1810 nM and the Kd (t-PA (Homo sapiens) [4]) is given as 450 nM.
